Laboratory results reported in IntAct's records for PubMed 25678664.

B1: Claudin-19 (Mus musculus), Q9ET38 (parent)
chain: MANSGLQLLGYFLALGGWVGIIASTALPQWKQSSYAGDAIITAVGLYEGLWMSCASQSTGQVQCKLYDSLLALDGHIQSARALMVVAVLLGFVAMVLSVVGMKCTRVGDSNPTAKSRVAISGGALFLLAGLCTLTAVSWYATLVTQEFFNPSTPVNARYEFGPALFVGWASAGLAMLGGSFLCCTCPEPERANSIPQPYRSGPSTAAREPVVKLPASVKGPLGV

Variants of: B1
Details: with eltb_clopf cpe
P154D was tested, and the “effect of a mutation on the interaction” value was “decreasing interaction strength”. With P154A the “effect of a mutation on the interaction” value was “decreasing interaction strength”. With N156G the “effect of a mutation on the interaction” value was “decreasing interaction strength”. With S152D the “effect of a mutation on the interaction” value was “decreasing interaction strength”. In the case of T153Y, the “effect of a mutation on the interaction” value is reported as “decreasing interaction strength”. With Y159S the “effect of a mutation on the interaction” value was “decreasing interaction strength”. In the case of Y159F, the “effect of a mutation on the interaction” value is reported as “decreasing interaction strength”. In the case of Y35S, the “effect of a mutation on the interaction” value is reported as “decreasing interaction strength”. For P151A, the “effect of a mutation on the interaction” value was “decreasing interaction strength”. For P151G, the “effect of a mutation on the interaction” value was “decreasing interaction strength”. A39S was tested, and the “effect of a mutation on the interaction” value was “decreasing interaction strength”. In the case of A39R, the “effect of a mutation on the interaction” value is reported as “decreasing interaction strength”. For I40A, the “effect of a mutation on the interaction” value was “decreasing interaction strength”. For I40S, the “effect of a mutation on the interaction” value was “decreasing interaction strength”. With I40V the “effect of a mutation on the interaction” value was “decreasing interaction strength”. For I40L, the “effect of a mutation on the interaction” value was “decreasing interaction strength”. In the case of N150K, the “effect of a mutation on the interaction” value is reported as “decreasing interaction strength”. N150Q was tested, and the “effect of a mutation on the interaction” value was “decreasing interaction strength”. With N150L the “effect of a mutation on the interaction” value was “decreasing interaction strength”. N150D was tested, and the “effect of a mutation on the interaction” value was “decreasing interaction strength”. In the case of N150A, the “effect of a mutation on the interaction” value is reported as “decreasing interaction strength”. N150S was tested, and the “effect of a mutation on the interaction” value was “decreasing interaction strength”. For I41A, the “effect of a mutation on the interaction” value was “decreasing interaction strength”. For I41S, the “effect of a mutation on the interaction” value was “decreasing interaction strength”. For I41V, the “effect of a mutation on the interaction” value was “decreasing interaction strength”.
